Results on 9 molecules are retold here after patent US20220064322A1.

Where two headings read alike, the source gives them in different places.

Assay [1] addresses T1, human CD73 on the cell surface (293T/17-huCD73 cells) (human), P21589. The assay is described as follows: cell-based or functional assay.
Assay [2] concerns the target T1, human CD73 on the cell surface …. Nature of the assay: cell-based or functional assay. The source holds these as a separate data set.
For assay [3] the target is unchanged. Nature of the assay: cell-based or functional assay. This is another data set of the same source.
For assay [4], the target named is human CD73 on the cell surface (293T/17-huCD73 cells) (human) (UniProt P21589). Nature of the assay: flow cytometry on 293T/17-human CD73 cells, curve fit.
Assay [5] shares this target. Nature of the assay: cell-based or functional assay.
The target is the same in assay [6]. Nature of the assay: flow cytometry on 293T/17-human CD73 cells. Background: A flow cytometer gives signals particle by particle.
The target is the same in assay [7]. Nature of the assay: cell-based or functional assay. The source holds these as a separate data set.
Assay [8] has the same target. The assay is described as follows: cell-based or functional assay. This is another data set of the same source.
The target is the same in assay [9]. The assay is described as follows: flow cytometry on 293T/17-huCD73 cells, curve fit.
Assay [10] has the same target. Nature of the assay: flow cytometry on 293T/17-huCD73 cells.
For assay [11] the target is unchanged. Nature of the assay: flow cytometry on 293T/17 cells expressing huCD73, APC-labelled goat anti-human antibody, MFI.

T1 sequence (P21589 27-549): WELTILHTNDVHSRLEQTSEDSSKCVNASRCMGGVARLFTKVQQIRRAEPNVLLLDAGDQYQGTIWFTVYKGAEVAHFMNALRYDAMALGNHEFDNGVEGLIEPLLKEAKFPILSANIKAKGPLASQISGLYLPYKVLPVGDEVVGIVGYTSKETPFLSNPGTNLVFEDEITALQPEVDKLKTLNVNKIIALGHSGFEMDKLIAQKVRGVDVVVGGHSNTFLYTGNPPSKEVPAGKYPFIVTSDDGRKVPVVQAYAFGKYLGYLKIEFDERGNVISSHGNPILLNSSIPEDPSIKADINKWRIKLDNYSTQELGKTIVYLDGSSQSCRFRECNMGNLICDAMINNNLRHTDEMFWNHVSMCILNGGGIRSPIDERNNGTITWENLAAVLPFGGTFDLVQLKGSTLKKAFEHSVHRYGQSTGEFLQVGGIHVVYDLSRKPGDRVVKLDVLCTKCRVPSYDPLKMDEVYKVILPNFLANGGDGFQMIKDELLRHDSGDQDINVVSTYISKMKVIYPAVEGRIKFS
human CD73 on the cell surface (293T/17-huCD73 cells) (human), sequence (P21589 27-549): as above

B1: 94H1L3 hIgG2 (antibody)
heavy: QVQLVQSGAEVKKPGASVKVSCKASGYTFTSYWMHWVRQAPGQGLEWMGYINPSSGYTKSNQKFKDRVTMTADTSTSTAYMELSSLRSEDTAVYYCGRWLLSAWFAYWGQGTLVTVSSASTKGPSVFPLAPCSRSTSESTAALGCLVKDYFPEPVTVSWNSGALTSGVHTFPAVLQSSGLYSLSSVVTVPSSNFGTQTYTCNVDHKPSNTKVDKTVERKCCVECPPCPAPPVAGPSVFLFPPKPKDTLMISRTPEVTCVVVDVSHEDPEVQFNWYVDGVEVHNAKTKPREEQFNSTFRVVSVLTVVHQDWLNGKEYKCKVSNKGLPAPIEKTISKTKGQPREPQVYTLPPSREEMTKNQVSLTCLVKGFYPSDIAVEWESNGQPENNYKTTPPMLDSDGSFFLYSKLTVDKSRWQQGNVFSCSVMHEALHNHYTQKSLSLSPGK
light: DIQMTQSPSSLSASVGDRVTITCKASQDINTYLSWFQQKPGKSPKSLIYRSNILVDGVPSRFSGSGSGQDYTLTISSLQPEDFAIYYCLQYDDFPYTFGQGTKLEIKRTVAAPSVFIFPPSDEQLKSGTASVVCLLNNFYPREAKVQWKVDNALQSGNSQESVTEQDSKDSTYSLSSTLTLSKADYEKHKVYACEVTHQGLSSPVTKSFNRGEC
The molecule B1 displayed an IC50, blockade of 5'exonuclease activity on 293T/17-human CD73 cells in assay [1] of 0.007 nM. For the same molecule, the EC50, reversal of AMP-mediated human CD4+ T cell proliferation inhibition in assay [2] was found to be 0.012 nM. The EC50, release of IFN-γ from CD4+ T cells (ELISA of supernatant) in [3] came out at 0.001 nM.

B2: JB94H2L1 (antibody, human IgG1, kappa, V domains shown)
VH: QVQLVQSGAEVKKPGASVKVSCKASGYTFTSYWMHWVRQRPGQGLEWMGYINPSSGYTKSNQKFKDRVTLTADTSTSTAYMELSSLRSEDTAVYYCGRWLLSAWFAYWGQGTLVTVSS
VL: DIQMTQSPSSLSASVGDRVTITCKASQDINTYLSWFQQKPGKAPKSLIYRSNILVDGVPSRFSGSGSGQDFTLTISSLQPEDFAIYYCLQYDDFPYTFGQGTKLEIKR
In assay [4], B2 yielded a Bottom of 0.604 fluorescence and a Top of 223 fluorescence. Also, in assay [5], the EC50, reversal of AMP-mediated human CD4+ T cell proliferation inhibition turned out to be 0.032 nM. The concentration for a half-maximal effect (EC50) in assay [6] came out at 9.15 nM. In addition, the EC50, release of IFN-γ from CD4+ T cells (ELISA of supernatant) in assay [7] came out at 0.002 nM. In [8], the IC50, blockade of 5'exonuclease activity of U87-MG cells was 0.214 nM and the IC50, blockade of 5'exonuclease activity on 293T/17-human CD73 cells was 0.005 nM.

B3: JB94H3L3 (antibody, human IgG1, kappa, V domains shown)
VH: QVQLQQSGAEVKKPGASVKLSCKASGYTFTSYWMHWVRQRPGQGLEWIGYINPSSGYTKSNQKFKDRATLTADTSTSTAYMELSSLRSEDTAVYYCGRWLLSAWFAYWGQGTLVTVSS
VL: DIQMTQSPSSLSASVGDRVTITCKASQDINTYLSWFQQKPGKSPKSLIYRSNILVDGVPSRFSGSGSGQDYTLTISSLQPEDFAIYYCLQYDDFPYTFGQGTKLEIKR
In assay [4], B3 yielded a Bottom of 1.78 fluorescence and a Top of 239 fluorescence. Also, the EC50, reversal of AMP-mediated human CD4+ T cell proliferation inhibition in assay [5] worked out at 0.003 nM. Further, the EC50 in assay [6] was 15.3 nM. The molecule also returned an EC50, release of IFN-γ from CD4+ T cells (ELISA of supernatant) in assay [7] of 0.003 nM. Besides, in [8], the IC50, blockade of 5'exonuclease activity of U87-MG cells worked out at 0.456 nM and the IC50, blockade of 5'exonuclease activity on 293T/17-human CD73 cells worked out at 0.004 nM.

B4: JB24Chi (antibody, human IgG1, kappa, V domains shown)
VH: QVQLQQSGLELVKPGASVKMSCKASGYTFTDYNMHWVKQSHGKSLEWIGYIKPHNGGTTYNPKFEGKATLTVNKSSSTAYMELRSLTSEDSAVYYCVRCDFLYWYFDVWGTGTTVTVSS
VL: DIVMTQSPAIMSASLGERVTMTCTASSSVSSSYLHWYQQKPGSSPKLWIYSTSNLASGVPGRFSGSGSGTSYSLTISSMEAEDAATYYCHQYHRSPLTFGAGTKLEMKR
In assay [4], B4 displayed a Bottom of 3.72 fluorescence and a Top of 196 fluorescence. In assay [9], the Bottom (fluorescence intensity) was -1.47 and the Top (fluorescence intensity) amounted to 42. Moreover, the half-maximal effective concentration (EC50) in assay [10] was found to be 1.14 nM. For the same molecule, the EC50, reversal of AMP-mediated human CD4+ T cell proliferation inhibition in [5] turned out to be 0.003 nM. Also, the concentration for a half-maximal effect (EC50) in assay [6] is 5.33 nM. Further, the EC50, release of IFN-γ from CD4+ T cells (ELISA of supernatant) in assay [7] was 0.006 nM. Also, the EC50 (read off the curve) in assay [11] turned out to be 6 nM. Moreover, in [8], the EC50, release of IFN-γ from CD4+ T cells (ELISA of supernatant) turned out to be 0.0132 nM; the EC50, reversal of AMP-mediated human CD4+ T cell proliferation inhibition came out at 0.007 nM; the IC50, antibody-mediated internalization of CD73 on MDA-MB-231 cells (Fab-ZAP saporin conjugate) was determined as 0.012 nM; the IC50, blockade of 5'exonuclease activity of U87-MG cells was 0.053 nM. In addition, in assay [8], the IC50, blockade of 5'exonuclease activity on 293T/17-HuCD73 cells worked out at 0.031 nM; the IC50, blockade of 5'exonuclease activity on 293T/17-human CD73 cells came to 0.006 nM; the IC50, blockade of CD73 enzyme activity of CD4+ T cells (CellTiter-Glo) is 0.009 nM.

B5: JB24H2L1 (antibody, human IgG1, kappa, V domains shown)
VH: QVQLVQSGAEVKKPGASVKMSCKASGYTFTDYNMHWVRQSPGKSLEWIGYIKPHNAGTTYNPKFEGRATLTVDTSASTAYMELSSLRSEDTAVYYCVRSDFLYWYFDVWGQGTTVTVSS
VL: DIQMTQSPSSLSASVGDRVTITCTASSSVSSSYLHWYQQKPGKAPKLLIYSTSNLASGVPSRFSGSGSGTDFTLTISSLQPEDFATYYCHQYHRSPLTFGAGTKLEIKR
Turning to B5, in [4], the Bottom was 1.64 fluorescence and the Top stood at 82.2 fluorescence. Further, the EC50, reversal of AMP-mediated human CD4+ T cell proliferation inhibition in assay [5] turned out to be 0.032 nM. In [6], the EC50 came to 2.4 nM. In addition, the EC50, release of IFN-γ from CD4+ T cells (ELISA of supernatant) in assay [7] stood at 0.002 nM. The EC50 (read off the curve) in assay [11] turned out to be 2 nM. In assay [8], this molecule came in with an IC50, blockade of 5'exonuclease activity of U87-MG cells of 0.474 nM and an IC50, blockade of 5'exonuclease activity on 293T/17-human CD73 cells of 0.042 nM.

B6: JB24H3L3 (antibody, human IgG1, kappa, V domains shown)
VH: QVQLVQSGAEVKKPGASVKMSCKASGYTFTDYNMHWVKQSHGKSLEWIGYIKPHNAGTTYNPKFEGRATLTVDTSASTAYMELRSLRSEDTAVYYCVRSDFLYWYFDVWGQGTTVTVSS
VL: DIVMTQSPSSLSASVGDRVTITCTASSSVSSSYLHWYQQKPGSSPKLWIYSTSNLASGVPGRFSGSGSGTDYTLTISSLQPEDFATYYCHQYHRSPLTFGAGTKLEIKR
In [4], B6 gave a Bottom of 0.131 fluorescence and a Top of 120 fluorescence. Further, the EC50, reversal of AMP-mediated human CD4+ T cell proliferation inhibition in [5] stood at 0.068 nM. Further, the 50% effective concentration (EC50) in assay [6] is 7.41 nM. In addition, in assay [7], the EC50, release of IFN-γ from CD4+ T cells (ELISA of supernatant) worked out at 0.345 nM. In assay [8], this molecule had an IC50, blockade of 5'exonuclease activity of U87-MG cells of 0.12 nM and an IC50, blockade of 5'exonuclease activity on 293T/17-human CD73 cells of 0.016 nM.

B7: JB24H3L2 (antibody, human IgG1, kappa, V domains shown)
VH: QVQLVQSGAEVKKPGASVKMSCKASGYTFTDYNMHWVKQSHGKSLEWIGYIKPHNAGTTYNPKFEGRATLTVDTSASTAYMELRSLRSEDTAVYYCVRSDFLYWYFDVWGQGTTVTVSS
VL: DIQMTQSPSSLSASVGDRVTITCTASSSVSSSYLHWYQQKPGSAPKLWIYSTSNLASGVPSRFSGSGSGTDYTLTISSLQPEDFATYYCHQYHRSPLTFGAGTKLEIKR
In assay [4], B7 displayed a Bottom of 1.78 fluorescence and a Top of 91.7 fluorescence. In addition, the EC50, reversal of AMP-mediated human CD4+ T cell proliferation inhibition in assay [5] came to 0.022 nM. In assay [6], this molecule yielded a half-maximal effective concentration (EC50) of 3.01 nM. The EC50, release of IFN-γ from CD4+ T cells (ELISA of supernatant) in assay [7] was 0.015 nM. The EC50 (read off the curve) in [11] was 3 nM. In assay [8], this molecule gave an IC50, blockade of 5'exonuclease activity of U87-MG cells of 0.27 nM and an IC50, blockade of 5'exonuclease activity on 293T/17-human CD73 cells of 0.014 nM.

B8: 66-hIgG2 (antibody)
heavy: QVHLQQSGAELAKPGASVNLSCKASGYAFTSYWMHWVKQRPGQGLEWIGYINPSSGLAKYNQKFKDKATLTTDKSSNTAYMQLSSLTYDDSAVYYCGRWLLSAWFAYWGQGTLVTVSAASTKGPSVFPLAPCSRSTSESTAALGCLVKDYFPEPVTVSWNSGALTSGVHTFPAVLQSSGLYSLSSVVTVPSSNFGTQTYTCNVDHKPSNTKVDKTVERKCCVECPPCPAPPVAGPSVFLFPPKPKDTLMISRTPEVTCVVVDVSHEDPEVQFNWYVDGVEVHNAKTKPREEQFNSTFRVVSVLTVVHQDWLNGKEYKCKVSNKGLPAPIEKTISKTKGQPREPQVYTLPPSREEMTKNQVSLTCLVKGFYPSDIAVEWESNGQPENNYKTTPPMLDSDGSFFLYSKLTVDKSRWQQGNVFSCSVMHEALHNHYTQKSLSLSPGK
light: DIKMTQSPSSIYASLGERVTITCKASQGINTYLSWFQQKPGKSPKTLIYRANILVDGVPSRFSGSGSGQDYSLTINSLEYEDMGIYYCLQYDEFPYTFGGGTKLEIKRTVAAPSVFIFPPSDEQLKSGTASVVCLLNNFYPREAKVQWKVDNALQSGNSQESVTEQDSKDSTYSLSSTLTLSKADYEKHKVYACEVTHQGLSSPVTKSFNRGEC
B8 showed an IC50, antibody-mediated internalization of CD73 on MDA-MB-231 cells (Fab-ZAP saporin conjugate) in [1] of 0.022 nM.

B9: 94-hIgG2 (antibody)
heavy: QVQLQQSGAELAKPGASVKLSCKASGYTFTSYWMHWVKQRPGQGLEWIGYINPSSGYTKSNQKFKDKATLTADKSSSTAYMQLSSLTYEDSAVYYCGRWLLSAWFAYWGQGTLVTVSAASTKGPSVFPLAPCSRSTSESTAALGCLVKDYFPEPVTVSWNSGALTSGVHTFPAVLQSSGLYSLSSVVTVPSSNFGTQTYTCNVDHKPSNTKVDKTVERKCCVECPPCPAPPVAGPSVFLFPPKPKDTLMISRTPEVTCVVVDVSHEDPEVQFNWYVDGVEVHNAKTKPREEQFNSTFRVVSVLTVVHQDWLNGKEYKCKVSNKGLPAPIEKTISKTKGQPREPQVYTLPPSREEMTKNQVSLTCLVKGFYPSDIAVEWESNGQPENNYKTTPPMLDSDGSFFLYSKLTVDKSRWQQGNVFSCSVMHEALHNHYTQKSLSLSPGK
light: DIRMTQSPSSMYASLGERVTITCKASQDINTYLSWFQQKPGKSPKSLIYRSNILVDGVPSRFSGSGSGQDYSLTISSLEYEDMGIYYCLQYDDFPYTFGGGTKLEIKRTVAAPSVFIFPPSDEQLKSGTASVVCLLNNFYPREAKVQWKVDNALQSGNSQESVTEQDSKDSTYSLSSTLTLSKADYEKHKVYACEVTHQGLSSPVTKSFNRGEC
Consider B9, for which the IC50, antibody-mediated internalization of CD73 on MDA-MB-231 cells (Fab-ZAP saporin conjugate) in [1] is 0.019 nM.

One may read the EC50 as the concentration needed to bring the measured effect to its halfway point. By EC50 (read off the curve) is commonly meant the concentration giving half of the maximal effect. The low end stands for greater potency, the high end for weaker potency.
